Where a chain is given by its changes, count along the chain named.
T1: IFNAR2/Ig fusion protein (IFNAR2 extracellular domain fused to the hinge, CH2 and CH3 domains of human IgG1) (human, UniProt P48551 27-243)
T1 construct: extracellular domain; also called IFNAR2/Fc; IFNAR2-Fc; not shown: human IgG1 constant region: hinge, CH2 and CH3 domains
T1 sequence (looked up): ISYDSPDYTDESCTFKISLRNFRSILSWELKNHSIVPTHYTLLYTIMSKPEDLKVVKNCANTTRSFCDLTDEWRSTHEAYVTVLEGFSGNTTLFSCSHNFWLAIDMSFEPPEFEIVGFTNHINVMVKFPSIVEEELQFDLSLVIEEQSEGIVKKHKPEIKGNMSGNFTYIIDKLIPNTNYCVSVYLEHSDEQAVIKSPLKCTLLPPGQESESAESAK

B1: his tagged-wild-type interferon-beta-1a (ligand)
chain: SGGHHHHHHSSGDDDDKMSYNLLGFLQRSSNFQCQKLLWQLNGRLEYCLKDRMNFDIPEEIKQLQQFQKEDAALTIYEMLQNIFAIFRQDSSSTGWNETIVENLLANVYHQINHLKTVLEEKLEKEDFTRGKLMSSLHLKRYYGRILHYLKAKEYSHCAWTIVRVEILRNFYFINRLTGYLRN
notes: Expressed in human EBNA 293 cells and tested as conditioned medium; also called wild type his-IFN-beta; w.t. his-IFN-beta
B2: his tagged-interferon-beta alanine substitution mutant A2 (ligand)
chain: B1 chain with F32A, Q33A, Q35A, K36A, W39A, Q40A
notes: Tested as EBNA 293 conditioned medium; also called A2 helix mutant
B3: his tagged-interferon-beta alanine substitution mutant AB2 (ligand)
chain: B1 chain with M53A, N54A, D56A, E59A
notes: Tested as EBNA 293 conditioned medium
B4: his tagged-interferon-beta alanine substitution mutant AB1 (ligand)
chain: B1 chain with L45A, E46A, Y47A, L49A, K50A
notes: as for B3
B5: his tagged-interferon-beta alanine substitution mutant E (ligand)
chain: B1 chain with V165A, R169A, Y172A, N175A
notes: also called E helix mutant

Target: T1, IFNAR2/Ig fusion protein (IFNAR2 …)
Experiment: ELISA on captured IFNAR2-Fc; reference, value not given
Protocol: The receptor binding properties of the Interferon-beta mutants described in C were assessed using two different binding assays. One assay measured binding of the interferon-beta mutants to a fusion protein, IFNAR2/Ig, comprising the extracellular domain of the human IFNAR2 receptor chain fused to part of the constant region of a human IgG. IFNAR2-Fc was expressed in chinese hamster ovary (CHO) cells and purified by protein A sepharose affinity chromatography according to the instructions of the manufacturer (Pierce Chem. Co., Rockford, Ill., catalog #20334). The binding of interferon-beta mutants to IFNAR2-Fc was measured in an ELISA format assay. […] Binding of the interferon-beta mutants to IFNAR2-Fc was measured by adding 50 μl/well mutant interferon-beta in conditioned media, serially diluted in Dulbecco's Modified Eagle's Medium (DMEM) supplemented with 10% fetal bovine serum, and incubating for 2 hours at 4° C. […] After washing, interferon-beta bound to the plates was detected by adding 50 μl/well of a cocktail consisting of a 1:1000 dilution of a rabbit polyclonal anti-interferon antibody (#447) plus horseradish peroxidase (HRP)-labelled donkey anti-rabbit IgG (Jackson ImmunoResearch), and incubating for 15 minutes at 4° C. After two washes, HRP substrate was added, and the plate was incubated at 4° C. before being read on an ELISA plate reader at an absorbance of 450 nm. […]

| binding result | Binder |
| --- | --- |
| binds | B1 |

Target: T1, IFNAR2/Ig fusion protein (IFNAR2 …)
Experiment: ELISA; IFNAR2-Fc captured on anti-human IgG1 plate; mutant in conditioned medium
Protocol: (§1) The receptor binding properties of the Interferon-beta mutants described in C were assessed using two different binding assays. One assay measured binding of the interferon-beta mutants to a fusion protein, IFNAR2/Ig, comprising the extracellular domain of the human IFNAR2 receptor chain fused to part of the constant region of a human IgG. IFNAR2-Fc was expressed in chinese hamster ovary (CHO) cells and purified by protein A sepharose affinity chromatography according to the instructions of the manufacturer (Pierce Chem. Co., Rockford, Ill., catalog #20334). The binding of interferon-beta mutants to IFNAR2-Fc was measured in an ELISA format assay. ELISA plates were prepared by coating flat-bottomed 96 well plates overnight at 4° C. with 50 μl/well of mouse anti-human IgG1 monoclonal antibody (CDG5-AA9, Biogen, Inc.) at 10 μg/ml in coating buffer (50 mM NaHCO₃, 0.2 mM MgCl₂, 0.2 mM CaCl₂, pH 9.6). Plates were washed twice with PBS containing 0.05% Tween-20, and blocked with 0.5% non-fat dry milk in PBS for 1 hour at room temperature. After two more washes, 50 μl of 1 μg/ml IFNAR2-Fc in 0.5% milk in PBS containing 0.05% Tween-20 was added to each well and incubated for 1 hour at room temperature, and the plates were then washed twice more. Binding of the interferon-beta mutants to IFNAR2-Fc was measured by adding 50 μl/well mutant interferon-beta in conditioned media, serially diluted in Dulbecco's Modified Eagle's Medium (DMEM) supplemented with 10% fetal bovine serum, and incubating for 2 hours at 4° C. Dilutions of interferon-beta mutant typically ranged from approximately 1 μM down to 10 pM. After washing, interferon-beta bound to the plates was detected by adding 50 μl/well of a cocktail consisting of a 1:1000 dilution of a rabbit polyclonal anti-interferon antibody (#447) plus horseradish peroxidase (HRP)-labelled donkey anti-rabbit IgG (Jackson ImmunoResearch), and incubating for 15 minutes at 4° C. After two washes, HRP substrate was added, and the plate was incubated at 4° C. before being read on an ELISA plate reader at an absorbance of 450 nm. Data were plotted as absorbance versus the concentration of mutant interferon-beta, and the affinity for the binding of the mutant interferon-beta to IFNAR2-Fc was determined by fitting the data to a simple hyperbolic binding equation.

| binding result | Binder |
| --- | --- |
| no binding | B2 |
| no binding | B3 |
| no binding | B4 |
| no binding | B5 |

Target: T1, IFNAR2/Ig fusion protein (IFNAR2 …)
Experiment: ELISA on captured IFNAR2-Fc
Protocol: as §1

| EC50 relative to w.t. his-IFN-beta EC50 | Binder |
| --- | --- |
| > 500 fold of w.t. his-IFN-beta EC50 | B2 |
| > 500 fold of w.t. his-IFN-beta EC50 | B3 |
| > 500 fold of w.t. his-IFN-beta EC50 | B4 |
| > 500 fold of w.t. his-IFN-beta EC50 | B5 |
